# Assay results: patent publication US12397036B2, “Peptide exchange protein” (Cambridge Enterprise Limited, priority 2018, dated 2025)
# Legend:
# Assay type in all cases: cell-based
# [1] = target: T1, HLA-A68 (MHC class I) expressed on HeLa cells (Homo sapiens, UniProt P04439, A269V/D140Y/D185E/E176V/E277Q/E87N/F33Y/G231S/I121R/I166T/I218V/L180W/L300P/L318F/N151K/P208A/P217A/Q86R/R138H/R169H/S129P/T345S/V36M); experiment: ETV* peptide loading on HeLa cells by exogenous mouse TAPBPR
# T1 construct: HLA-A68 (MHC class I) expressed on HeLa; endogenous in cells; host or cells: HeLaM and derivatives (TAPBPR-KO with or without TAPBPR/tapasin constructs, +Her2, Her2-KO, +PDL1, pD-GFP); in some arms HeLaM-HLA-ABC-KO re-expressing HLA-A*68:02
# [2] = target: T2, YLL/HLA-A2 complexes on SKBR3 and MCF-7 cells (Homo sapiens, UniProt P04439, D140Y/D185E/D98H/E176V/E277Q/G131W/G231S/I119V/I121R/I166T/I218V/L300P/L318F/N151K/N90K/P208A/P217A/Q86G/Q94H/R138H/R169H/T345S); experiment: TCR-like mAb LMP-1 staining of breast cancer cell lines
# T2 construct: endogenous in cells; host or cells: SKBR3 and MCF-7
# Procedure: (§1) Bar graphs show (B) the binding YLL* peptide and (C) the binding of TCR-like mAb reagent LMP-1 which recognises the EBV specific peptide YLL in the context of HLA-A2, when SKBR3 and MCF-7 cells were incubated with no peptide, peptide alone, or peptide in the presence of 100 nM soluble TAPBPR or 100 nM TAPBPR-Her2 antibody fusion protein.
# HLA-A2 = target: T3, HLA-A2 (Homo sapiens, UniProt P04439, D140Y/D185E/D98H/E176V/E277Q/G131W/G231S/I119V/I121R/I166T/I218V/L300P/L318F/N151K/N90K/P208A/P217A/Q86G/Q94H/R138H/R169H/T345S); experiment: NLV* and YLL* viral peptide loading on HeLaM-ABC^KO cells -/+ HLA-A2; settings: for loading of viral peptides NLV* and YLL* onto surface expressed HLA-A2: 10 nM peptide 15 min
# T3 construct: expressed in transfected cells; host or cells: HeLaM-HLA-ABC-KO
# Procedure: For the histograms in A & C 100 nM of the indicated recombinant TAPBPR protein was used. […] The TCR is specific for […] peptide presented on HLA-A2 molecules.
# HLA-A*68:02 = target: T4, HLA-A*68:02 (Homo sapiens, UniProt P04439, A269V/D140Y/D185E/E176V/E277Q/E87N/F33Y/G231S/I121R/I166T/I218V/L180W/L300P/L318F/N151K/P208A/P217A/Q86R/R138H/R169H/S129P/T345S/V36M); experiment: ETV* peptide loading on HeLaM, HeLaM+Her2 and HeLaM^Her2KO cells; settings: Her2-dependent; 10 nM peptide 15 min
# T4 construct: HLA-A68 (MHC class I) expressed on HeLa; endogenous in cells; host or cells: HeLaM and derivatives (TAPBPR-KO with or without TAPBPR/tapasin constructs, +Her2, Her2-KO, +PDL1, pD-GFP); in some arms HeLaM-HLA-ABC-KO re-expressing HLA-A*68:02
# Text: Note, there is endogenous Her2 on HeLa.
# [3] = target: T5, HLA-A2 on SKBR3 and MCF-7 cells (Homo sapiens, UniProt P04439, D140Y/D185E/D98H/E176V/E277Q/G131W/G231S/I119V/I121R/I166T/I218V/L300P/L318F/N151K/N90K/P208A/P217A/Q86G/Q94H/R138H/R169H/T345S); experiment: YLL* peptide loading on breast cancer cell lines; settings: for loading of antigenic peptide onto MCF-7 and SKBR3 cells: 100 nM protein, YLL* peptide
# T5 construct: endogenous in cells; host or cells: SKBR3 and MCF-7
# Procedure: as §1
molecule,measurement,setting,value
"mouse TAPBPR: exogenous luminal domains of mouse TAPBPR; SEQ ID NO: 22 (protein, luminal domains of mouse TAPBPR) DPPTAPTTAERQRQPTDIILDCFLVTEDRHRGAFASSGDRERALLVLKQVPVLDDGSLEGITDFQGSTETKQDSPVIFEASVDLVQIPQAEALLHADCSGKAVTCEISKYFLQARQEATFEKAHWFISNMQVSRGGPSVSMVMKTLRDAEVGAVRHPTLNLPLSAQGTVKTQVEFQVTSETQTLNHLLGSSVSLHCSFSMAPDLDLTGVEWRLQHKGSGQLVYSWKTGQGQAKRKGATLEPEELLRAGNASLTLPNLTLKDEGTYICQISTSLYQAQQIMPLNILAPPKVQLHLANKDPLPSLVCSIAGYYPLDVGVTWIREELGGIPAQVSGASFSSLRQSTMGTYSISSTVMADPGPTGATYTCQVAHVSLEEPLTTSMRVLPNPEQRGT",loading of ETVSK*QSNV (ETV*) to HLA-A68,[1],shown to load fluorescent human neoantigen peptide
same,peptide loading efficiency relative to human TAPBPR,[1],less efficient than human TAPBPR
"TAPBPR-Her2-scFv: recombinant TAPBPR fused to a scFv specific for Her2; SEQ ID NO: 8 (protein, TAPBPR-Her2scFv) MGTQEGWCLLLCLALSGAAETKPHPAEGQWRAVDVVLDCFLVKDGAHRGALASSEDRARASLVLKQVPVLDDGSLEDFTDFQGGTLAQDDPPIIFEASVDLVQIPQAEALLHADCSGKEVTCEISRYFLQMTETTVKTAAWFMANVQVSGGGPSISLVMKTPRVAKNEVLWHPTLNLPLSPQGTVRTAVEFQVMTQTQSLSFLLGSSASLDCGFSMAPGLDLISVEWRLQHKGRGQLVYSWTAGQGQAVRKGATLEPAQLGMARDASLTLPGLTIQDEGTYICQITTSLYRAQQIIQLNIQASPKVRLSLANEALLPTLICDIAGYYPLDVVVTWTREELGGSPAQVSGASFSSLRQSVAGTYSISSSLTAEPGSAGATYTCQVTHISLEEPLGASTQVVPPERRHVGGGGSGGGGSGGGGSTSADLGSRAMAQVQLVQSGAEVKKPGESLKISCKGSGYSFTSYWIAWVRQMPGKGLEYMGLIYPGDSDTKYSPSFQGQVTISVDKSVSTAYLQWSSLKPSDSAVYFCARHDVGYCSSSNCAKWPEYFQHWGQGTLVTVSSGGGGSGGGGSGGGGSQSVLTQPPSVSAAPGQKVTISCSGSSSNIGNNYVSWYQQLPGTAPKLLIYDHTNRPAGVPDRFSGSKSGTSASLAISGFRSEDEADYYCASWDYTLSGWVFGGGTKLTVLGAAAGGGGS",YLL/HLA-A2 complexes accessible for TCR binding versus soluble TAPBPR+peptide or peptide alone,[2],significantly more YLL/HLA-A2 complexes were accessible for TCR binding
same,binding of TCR-like mAb LMP-1 to treated cells,[2]; fusion protein and peptide,bound extremely well
same,"peptide loading on cells lacking HLA-A, -B and -C expression",HLA-A2,no peptide loading was observed
same,loading of viral peptides NLV* and YLL* onto surface expressed HLA-A2,HLA-A2,could load fluorescent variants
same,loading of viral peptides NLV* and YLL* onto surface expressed HLA-A2,HLA-A2; listed as TAPBPR-Her2-svFc,shown to load viral peptides onto HeLa cells expressing HLA-A2
same,loading of exogenous peptide ETV* onto surface of HeLaM cells,HLA-A*68:02,very efficient at loading exogenous peptide
same,loading of antigenic peptide onto MCF-7 and SKBR3 cells,[3],efficiently loads antigenic peptides onto both of these breast cancer cell lines
same,loading of antigenic peptide onto MCF-7 and SKBR3 cells,[3]; listed as TAPBPR-her 2 antibody fusion protein,works extremely efficiently on both these breast cancer cell lines
same,peptide loading on SKBR3 cell line,[3]; low MHC I expression,efficient peptide loading
